Laboratory results reported in the DeepSol protein solubility set.

assay: soluble on expression in E. coli; label from the status in PepcDB or PDB records

| Sequence | soluble on expression in E. coli |
| --- | --- |
| MKQPKVSVIVTCYNYATYLEGCLASILNQTYQDFELVIINDGSTDNTDEVISRFLDNDKVRYINQKNTGQAIATNNGIAAAAGELIAFLDADDLWEPTKLEKQVRLFNRDSIGVVYSRIRFMDAEGCTLDMQLEGKYYTPRSGRVTDALLFENFIPYSSTVVRKECFDKFGMFNPEYKNGLDWDLWLRISREYEFDFVDEYLLIYRIGHPGQLTSNVERSVRCADLIFDRFLEENPGIVPDSVVRKAMAYSYCRRGNQFRKIDRKRSNGFFLNALAKNPAEIGAYVGLVKNFLNMLEHHHHHH | not soluble |
| MKQQGTTLPANNHTLKQYAFFAGMLSSLKKQKWRKGMSESLHLTRNGSILEITLDRPKANAIDAKTSFEMGEVFLNFRDDPQLRVAIITGAGEKFFSAGWDLKAAAEGEAPDADFGPGGFAGLTEIFNLDKPVIAAVNGYAFGGGFELALAADFIVCADNASFALPEAKLGIVPDSGGVLRLPKILPPAIVNEMVMTGRRMGAEEALRWGIVNRVVSQAELMDNARELAQQLVNSAPLAIAALKEIYRTTSEMPVEEAYRYIRSGVLKHYPSVLHSEDAIEGPLAFAEKRDPVWKGR | not soluble |
| MKQTFITLGEGLTDLFEFMTMIEYNHQRIDKIIYFHSPQAENKKSSVAIIMNPTTGNHFQAFYIMINAIKYPYPDSNKKFQMINDCAEKFDIPILGIDVQPPQAFHDLSLYYNYLISVLRLQKWIPELQLEHHHHHH | not soluble |
| MKRCLAILAFAALLFPALPAYSAPARQPSSNTPPPDIVMHPEYARTIGRLAYVWGWPMVNMLNRNARITKAPHPGLLGGILPAAPRGQVGMLHDYILPAETFVTCPNQDVVYGLGFFSLDTEPVIAQVPDFGDRFWVYALYDHRTNQFGELGKPYRSKPGFYLLVGPNWKGQKPAGVQAIIRSPTALANAIPRIFMDDTDEDRQAIQKKINQVVFYPLKDFDGKMKSLDWQSTADIPNPGADSANAGETRWVVPEEFFNQFGQVLDMVPPLPGEEAMYVQFRSMMDAAAKDPAIKNALVEVAKETEEQVIAPFFQWKHNGKPAGNNWNRSVNNAQTGLDYFNRTGTAKSNMFDNRPNETQYFYTDFDSTGAVLDGGKRYEITFASGQLPPVKGFWSLTLYNKHHLFSPNDLNRYSLGTKNKNLVRGPDGSLTIHVGPTSPGKDKEANWLPSPREPISLYIRAYWGEQAILDGTWKPPAVKKIELEHHHHHH | not soluble |
| MKRFRKNNLELELIRELSEIDFYNISAPLNSKEFWKEWQEKFNRANLTRIALRNILRNKRLSPKEYRKVKNSIKKYEDIINYLNALKLTALNARGSFGGYFIEFDEDEEENEGGT | not soluble |
| MKRIAFVFSTAPHGTAAGREGLDALLATSALTDDLAVFFIADGVFQLLPGQKPDAVLARDYIATFKLLGLYDIEQCWVCAASLRERGLDPQTPFVVEATPLEADALRRELANYDVILRF | soluble |
| MKRIGVFTSGGDAPGMNAAIRAVVRQAHALGVEVIGIRRGYAGMIQGEMVPLGVRDVANIIQRGGTILLTARSQEFLTEEGRAKAYAKLQAAGIEGLVAIGGDGTFRGALCLVEEHGMPVVGVPGTIDNDLYGTDYTIGFDTAVNTALEAIDRIRDTAASHERVFFIEVMGRHAGFIALDVGLAGGAEVIAVPEEPVDPKAVAEVLEASQRRGKKSSIVVVAEGAYPGGAAGLLAAIREHLQVEARVTVLGHIQRGGSPTAKDRILASRLGAAAVEALVGGASGVMVGEVEGEVDLTPLKEAVERRKDINRALLRLSQVLAL | soluble |
| MKRKFLIGSHGRLASGLQSSIDILAGMGQALETIDAYVDDSDYTSQIDDFIAGVAADEQGLIFTDLLGGSVNQKMVTAVMNSGKDNIFLITNSNLATLLSLVFLKPGEALTKDEIVTVINESQVQLVDLVPETNSEDDFFD | not soluble |
| MKRLAVILITLALVSSMCITNSNEKRENMKNAKVLMVIAPKDFRDEELFEPMAVFESNGLKVDVVSTTKGECVGMLGNKITVEKTIYDVNPDDYVAIVIVGGIGSKEYLWNNTKLIELVKEFYNKNKVVSAICLSPVVLARAGILKGKKATVYPAPEAIEELKKAGAIYEDRGVVVDGNVITAKSPDYARLFGLEVLKAIEKNNE | soluble |
| MKRLLKEKEGIRLEFKEARTALPGNLFETICSMLNHDGGDIVLGVSDDGTVAGVEHAKMETMVSNLVNLSNNPQKLDPPFILFPQTYEIDGKWLIHIQVPSSSQVHKTSGIVFNRSNDGDFRVTQPQQIAEIYNRKRMHYTEGIIYPGLRFEDFKVDLFPKVRNLIRSNNPNHPWLALTDQQMLEKAGLWKRDINSTQEGYTLAAALLLGKDEVIQQLLPFFKIDALVRIEDIYRYDDREYIQTNLIEAYEQLMTFVGKHLPDKFYMEGDQRVSLRNKIFREIAANLIVHREYMNAYPCTFIIYSDRVETENANNPHGEGPIDPEHFAPFPKNPTIIKFFMQLGRVDELGSGILNVNRFIKEYANGGSSQFIEGNVFKMIIPVAGEKIEGAIEGAIEGAIEGAIEGATKKVKDKLAILLKAIAENEGKKVPDYVVITKIPRSSIERYIKQLREANLIDFRDKATLIGGYYLTSKMKQKLKEKSLEHHHHHH | not soluble |
| MKRLLVIGIMYTMFFLIGNIHLHADERTNVKEITSLEEPTWIFQAGISKGKYHDRQDLGFILQRNTPLKVRQTNPNFKDKLTVRLLSNDSKNEKSIQVGNEWITIQGDTPLVPFIDTPYGEEPALLEYQVGNESATKPLPIYKQQGSVSQFFSTWDQFDGEYALIQGESFQLFIPKKDKELVRSLKDFQSLDELIAYYEDIFAMYDSIIGLDGSTVENKKSQNRYFLKADISGAGGAYYGANWTANSTDSTKMWLDKLSWGTLHEIAHGYQAGFDNQGIFTGEVSNNLFGVQYQYSKYGKKADQVGWLFNFGKKEQVERNLYNALMKENKNYDDLDLRQKLILLTMAKQKAGDEAFAKMYQGYRKLASNAAFKKGDHSLPDLMNQYYSENVQVDFTPVFERWGFKLNHKQIEMNRAKGYPAVTSLAYIVPESQLAKARALVDPDIPINSNFEIVRNQQIASLGLKGNLHIHLNTNEIDTLKGGKIKLKEGNTVIQEKTIETADINLQDVPNGIYTVEISGGKTDSMYHFSTYYAYVKEKDNSLTIDVNEMKVSNLVNETIQFLGLGDDQFAELNTDLEQERAVFTVTTKTPHSYYAGEKYASIELFNEKGEKIYTKEMEGTNVTVVKDIIPLKEGYRIKIYHDEVKKRLTSKATIINPMNKTNEIIMTKWGLKNTYLKNNPEENLMKRIDEEMEVIISNPLLKEIPMQKLEMKKNVWMAINMLSEPQKITYINKYKDSLYNE | not soluble |
| MKRLMFIGPSQCGKTSLTQSLRGEALHYKKTQAIEWSPMAIDTPGEYLENRCLYSALLTSACEADVIALVLNADAQWSPFSPGFTAPMNRPTIGLVTKADLAEPQRISLVAEWLTQAGAQQIFITSALNNSGLDAVLDFLNSKEPLCLTKLEHHHHHH | soluble |
| MKRSAINDILGHTRQFFSQHDVHLPPFASFSPAQWQQLDTAAWEEVFDLKLGWDVTAFGRNNFAAHGLTLFTLRNGSAKGMPYVKCYAEKIMHVRDAQVTPMHFHWRKREDIINRGGGNLIVELWNADSNEQTADSDITVVIDGCRQKHTAGSQLRLSPGESICLPPGLYHSFWAEAGFGDVLVGEVSSVNDDDHDNHFLQPLDRYNLIDEDEPAQLVLCNEYRQFR | soluble |
| MKSLESMEQFQQLKNEENVVFMFSAEWCPDCRFVDPFMPEVEEKYSDFSFYYVDRDEFIDLCVKLDVFGIPSFVAYNKGEETGRYVNKDRKTQEQIEEFIEGLK | not soluble |
| MKSLETMARYKKELTECARNLKLPFLAEHLDEILHEAQEKQQTYSEFLSTCLMRELRDKERRSYLTRLKFAGLPARYDLDLYDFSRTEGIDQRQMRELRELVWIRRTYNLLLVGDSGTGKTFIASGLIHEAVKAGYKAYLLTLEELFVCLKTKEISRPAMKTYKRIMKAQLLAIDDVTLFPLKGEDVLLLFKLVNCVQGKTSLIITASRDLTGWLEMAGDEVCAAALLDRLLYCCEIIRLSGKSYRMENRKTIFSNQQIGTASLEHHHHHH | not soluble |
| MKSLQSSLGNIETFKLDELCPKHEIQLTQIKGERHVVVGWNENGEAIKEVRCIPPYCEQCQEEQKKQDEEDAIADNLNAKLYMQTYNVLMSNKSYVADEFKTKTFDDFNAVTSEEKRFLEFAKGQVQKYLDGMRGNTLITGGTGIGKTLLSVAIAKGINEGYKTKGEPKSVLFVSLTEMIKQIKEGWNYGKGATLTEFEATELMKSVDYLIIDDLGAKNAVIKPKSDWEQDLLFDVLNNRENTIFNTNLDSDELKIVYNERNYSRILKGLEGNTFKAFGIKYKRYSLNQLKSNM | not soluble |
| MKSVVSSRETRSESNKSRRTFASTEWNKIIRETLYLETIYIPLDATSHSPDIIFQLQSPVEPKVLTVGVACKGRWKSEGIGWSDIIDEAKKFLDPVYDQVLSSAMDYHHCMLIIVSTKLSLNVSNELGNQSRCYSSGMFIRGDSFKVPDNCELVILCERDVQMLIDEEILSGLERAFHVSRSPTFWDFRLDLLVNLQ | not soluble |
| MKSYLVGGAVRDALLGLPVKDRDWVVVGATPQQMLDAGYQQVGRDFPVFLHPQSREEYALARTERKSGAGYTGFTCYAAPDVTLEADLLRRDLTVNALAQDADGAIIDPYGGQNDLRKRLLRHVSPAFSEDPLRVLRVARFAARYAHLGFRIAEETQALMAAIVEAGELAHLTPERVWKETESALTTRNPQVFFQTLRDCQALKVLFPEIDALYGVPAPAKWHPEIDTGLHTLMTVTMAAMLSPDVDVRFATLCHDLGKGLTPKALWPRHHGHGPAGVKLVEQLCARLRVPNDIRDLAKLVAEYHDLIHTLPILQPKTLVKLFDSIDAWRKPQRVQQIALTSEADVRGRTGFEASDYPQGRLLLEAWEVAQSVSTKEVVAAGFKGAEIREELTRRRIAAVAQWKEQRCPQPQG | not soluble |
| MKTARLLSSGALALSLLAGSVTAAVSPDEAAKLGSSLTPIGAQKEGNADGSIPAWTGGLAASAGKVDGKGFLSDPFADEKPLFTITAQNVEQYKDKLSDGQLAMFKRYPETYRIPVYKTHRTVALPAEIDEAVKQSALNVQPINDGNGLSNFEKSRYYAFPIPKNGVEVLWNHITRYRGGNLKRTIVQATPQTNGSFTPIRFEESVAFPQNMPDLDQSKAANILTFFKQQVTAPARLAGNVLLVHETLDQVKEPRLAWVYNAGQRRVRRAPQVAYDGPGTAADGLRTSDNFDMFSGAPDRYDWKLVGKREMYIPYNAYKLNDPTLKYSDIIKAGHINQDLTRYELHRVWEVVGTVKPGERHIYAKRHMYIDEDSWQIALVDHYDGRGQLWRVGEGHAQYHYDQKVAGYTLEALYDVIAGRYLALGMNNEEKRGYEFGFKASSADYTPAALRNAGVR | not soluble |
| MKTFNAGRNADTEDELWVVEHPPVFTQGLAGKPEHLLIRDDIPVVQIDRGGQITYHGPGQLVVYTMIDFKRRKTSVRNIVSALENSIIATLAEYGIEAAADPKRPGVYVGERKIASLGLRIKNGSVYHGLALNVNMDLSPFTHINPCGYAGMEMTQIADFVQPCPTPDEVAAKLTAHLETQFTPKADNNE | not soluble |
| MKTGKELKPGTVLRIDNDPWLVQKAEFTKSGRNSAIMKTKLKNLLTGYKTETVYGADDKLDDVILDRKEATLSFINGDEYTFMDTTDYTMYELNAEDIEAVLPYIEEGMEDVCEAVFFEGRLVSVELPTTISRKVVYTENAARGDTSGKVMKPAKLANGTEISVADFIQIDEWIDIDTRDNSFKGRSKKLEHHHHHH | soluble |
| MKTIRRYDVNEDRGHTGLVEAGDFYYLNYCVGNVGQDIESQINGAFDEMERRLALVGLTLDAVVQMDCLFRDVWNIPVMEKMIKERFNGRYPARKSIQTEFAHHGGPQGLLFQVDGVAYSKHISMT | soluble |
